According to patent US20090291081A1 (AbbVie / Abbott, published 2009):
Where “and” joins values, the source holds several entries; their conditions need not be identical. Equal values may be shown once.

T1: human IL-1α (human, UniProt P01583 113-271)
T1 sequence (looked up): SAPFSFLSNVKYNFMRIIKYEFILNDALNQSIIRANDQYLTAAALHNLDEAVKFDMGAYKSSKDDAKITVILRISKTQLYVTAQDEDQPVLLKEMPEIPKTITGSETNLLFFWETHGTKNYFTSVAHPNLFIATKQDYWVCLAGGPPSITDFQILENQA

B1: ABT2-108-534x/ABT1-122 hu IgG1/K wt (bispecific antibody, V domains shown)
VH: EVQLLESGGGLVQPGGSLRLSCAASGFTFADEGMMWVRQAPGKGLEWVSRITYSGKNTYYADSVKGRFTISRDNSKNTLYLQMNSLRAEDTAVYYCAKYTGRIFSHHLFDYWGQGTLVTVSS
VL: DIQMTQSPSSLSASVGDRVTITCRASQPIWTELNWYQQKPGKAPKLLIYGSSSLQSGVPRFSGSGSGTDFTLTISSLQPEDFATYYCQQFAYFPATFGQGTKVEIKR
B2: ABT2-108-603/ABT1-122 hu IgG1/K wt (bispecific antibody, V domains shown)
VH: EVQLLESGGGLVQPGGSLRLSCAASGFTFAEYTMMWVRQAPGKGLEWVSRITDAGKNTYYADSVKGRFTISRDNSKNTLYLQMNSLRAEDTAVYYCAKYTGRVGVHHLFDYWGQGTLVTVSS
VL: DIQMTQSPSSLSASVGDRVTITCRASQPIWTELNWYQQKPGKAPKLLIYGSSSLQSGVPRFSGSGSGTDFTLTISSLQPEDFATYYCQQFAYFPATFGQGTKVEIKR
B3: ABT2-65/ABT1-141 hu IgG1/K wt (bispecific antibody, V domains shown)
VH: EVQLLESGGGLVQPGGSLRLSCAASGFTFEDYQMGWVRQAPGKGLEWVSSISAMGNRTYYADSVKGRFTISRDDSKNTLYLQMNSLRAEDTAVYYCAKNLVRTQSKMWMFDYWGQGTLVTVSS
VL: DIQMTQSPSSLSASVGDRVTITCRASQWIQKQLAWYQQKPGKAPKLLIYSSSYLQSGVPRFSGSGSGTDFTLTISSLQPEDFATYYCQQHLRVPFTFGQGTKVEIKR
B4: ABT2-65-8/ABT1-141 hu IgG1/K wt (bispecific antibody, V domains shown)
VH: EVQLLESGGGLVQPGGSLRLSCAASGFTFEDYQMGWVRQAPGKGLEWVSSISAMGNRTYYADSVKGRFTISRDDSKNTLYLQMNSLRAEDTAVYYCAQNLVRMDSRRWMFDYWGQGTLVTVSS
VL: DIQMTQSPSSLSASVGDRVTITCRASQWIQKQLAWYQQKPGKAPKLLIYSSSYLQSGVPRFSGSGSGTDFTLTISSLQPEDFATYYCQQHLRVPFTFGQGTKVEIKR
B5: ABT2-65-166/ABT1-95-184 hu IgG1mut 234, 235/K (bispecific antibody, V domains shown)
VH: EVQLLESGGGLVQPGGSLRLSCAASGFTFEDYQMGWVRQAPGKGLEWVSSISAMGGRTYYADSVKGRFTISRDNSKNTLYLQMNSLRAEDTAVYYCAQNLVRLGRSRWMFDYWGQGTLVTVSS
VL: DIQMTQSPSSLSASVGDRVTITCRASRTPVRNLRWYQQKPGKAPKLLIYSRSYLEPGVPSRFSGSGSGTDFTLTISSLQPEDFATYHCLQGYRWPPTFGQGTKVEIKR
B6: ABT2-65-8/ABT1-212 hu IgG1/K wt (bispecific antibody, V domains shown)
VH: EVQLLESGGGLVQPGGSLRLSCAASGFTFEDYQMGWVRQAPGKGLEWVSSISAMGNRTYYADSVKGRFTISRDDSKNTLYLQMNSLRAEDTAVYYCAQNLVRMDSRRWMFDYWGQGTLVTVSS
VL: DIQMTQSPSSLSASVGDRVTITCRASQRINGNLRWYQQKPGKAPKLLIYSVSQLQSGVPSRFSGSGSGTDFTLTISSLQPEDFATYYCQQGYDWPPTFGQGTKVETKR
B7: ABT2-65-166/ABT1-95-15 hu IgG1/K wt (bispecific antibody, V domains shown)
VH: EVQLLESGGGLVQPGGSLRLSCAASGFTFEDYQMGWVRQAPGKGLEWVSSISAMGGRTYYADSVKGRFTISRDNSKNTLYLQMNSLRAEDTAVYYCAQNLVRLGRSRWMFDYWGQGTLVTVSS
VL: DIQMTQSPSSLSASVGDRVTITCRASQPIVRNLRWYQQKPGKAPKLLIYSSSYLEPGVPSRFSGSGSGTDFTLTISSLQPEDFATYHCQQGYRWPVTFGQGTKVEIKR
B8: ABT2-65-201/ABT1-95-15 hu IgG1/K mut (234; 235) (bispecific antibody, V domains shown)
VH: EVQLLESGGGLVQPGGSLRLSCVASGFTFEDYQMGWVRQAPGKGLEWVSSISAMGRRTYYADSVKGRFTISRDNSKNTLYLQMNSLRAEDTAVYYCAQNLVRLGRSRWMFDYWGQGTLVTVSS
VL: DIQMTQSPSSLSASVGDRVTITCRASQPIVRNLRWYQQKPGKAPKLLIYSSSYLEPGVPSRFSGSGSGTDFTLTISSLQPEDFATYHCQQGYRWPVTFGQGTKVEIKR
B9: ABT2-65-17/ABT1-141 hu IgG1/K wt (bispecific antibody, V domains shown)
VH: EVQLLESGGGLVQPGGSLRLSCVASGFTFEDYQMGWVRQAPGKGLEWVSSISAMGNRTYYADSVKGRFTISRDDSKNTLYLQMNSLRAEDTAVYYCAQNLVRLGRSRWMFDYWGQGTLVTVSS
VL: DIQMTQSPSSLSASVGDRVTITCRASQWIQKQLAWYQQKPGKAPKLLIYSSSYLQSGVPRFSGSGSGTDFTLTISSLQPEDFATYYCQQHLRVPFTFGQGTKVEIKR
B10: ABT2-108-620x/ABT1-122-750M hu IgG1 wt (bispecific antibody, V domains shown)
VH: EVQLLESGGGLVQPGGSLRLSCAASGFTFAEESWMWVRQAPGKGLEWVSRIGQDGKNTYYREDVKGRFTISRDNSKNTLYLQMNSLRAEDTAVYYCAKYTGRIMGHHLFDYWGQGTLVTVSS
VL: DIQMTQSPSSLSASVGDRVTITCSASQHIWTEMSWYQQKPGKAPKLLIYGSASRQKGVPSRFSGSGSGTDFTLTISSLQPEDFATYYCKQFAYFPNTFGQGTKVEIKR
B11: ABT2-108-518/ABT1-122 hu IgG1/K wt (bispecific antibody, V domains shown)
VH: EVQLLESGGGLVQPGGSLRLSCAASGFTFAEYTMMWVRQAPGKGLEWVSRIGQDGKNTYYRMDVKGRFTISRDNSKNTLYLQMNSLRAEDTAVYYCAKYTGRVGVHHLFDYWGQGTLVTVSS
VL: DIQMTQSPSSLSASVGDRVTITCRASQPIWTELNWYQQKPGKAPKLLIYGSSSLQSGVPRFSGSGSGTDFTLTISSLQPEDFATYYCQQFAYFPATFGQGTKVEIKR
B12: ABT2-108-620x/ABT1-122-750x huIgG1/K wt (bispecific antibody, V domains shown)
VH: EVQLLESGGGLVQPGGSLRLSCAASGFTFAEESWMWVRQAPGKGLEWVSRIGQDGKNTYYREDVKGRFTISRDNSKNTLYLQMNSLRAEDTAVYYCAKYTGRIMGHHLFDYWGQGTLVTVSS
VL: DIQMTQSPSSLSASVGDRVAITCSASQHIWTEISWYQQKPGKAPKLLIYGSASRQKGVPSRFSGSGSGTDFTLTISSLQPEDFATYYCKQFAYFPNTFGQGTKVEIKR
B13: ABT2-108-620x/ABT1-122-750MT hu IgG1 wt (bispecific antibody, V domains shown)
VH: EVQLLESGGGLVQPGGSLRLSCAASGFTFAEESWMWVRQAPGKGLEWVSRIGQDGKNTYYREDVKGRFTISRDNSKNTLYLQMNSLRAEDTAVYYCAKYTGRIMGHHLFDYWGQGTLVTVSS
VL: DIQMTQSPSSLSASVGDRVTITCSASQHIWTEMSWYQQKPGKTPKLLIYGSASRQKGVPSRFSGSGSGTDFTLTISSLQPEDFATYYCKQFAYFPNTFGQGTKVEIKR
B14: ABT2-108-538x/ABT1-221 huIgG1/K wt (second row of that name; light chain column ABT1-222) (bispecific antibody, V domains shown)
VH: EVQLLESGGGLVQPGGSLRLSCAASGFTFADEGMMWVRQAPGKGLEWVSRITYSGKNTYYADSVKGRFTISRDNSKNTLYLQMNSLRAEDTAVYYCAKYTGRILGHHLFDYWGQGTLVTVSS
VL: DIQMTQSPSSLSASVGDRVTITCRASQPITRNLRWYQQKPGKAPKLLIYHSSVLQSGVPSRFSGSGSGTDFTLTISSLQPEDFATYYCQQGYRWPVTFGQGTKVEIKR
B15: ABT2-108-538x/ABT1-221 huIgG1/K wt (bispecific antibody, V domains shown)
VH: EVQLLESGGGLVQPGGSLRLSCAASGFTFADEGMMWVRQAPGKGLEWVSRITYSGKNTYYADSVKGRFTISRDNSKNTLYLQMNSLRAEDTAVYYCAKYTGRILGHHLFDYWGQGTLVTVSS
VL: DIQMTQSPSSLSASVGDRVTITCRASQDIWPYLMWYQQKPGKAPKLLIYYSSMLQSGVPSRFSGSGSGTDFTLTISSLQPEDFATYYCQQFRRWPYTFGQGTKVEIKR
B16: ABT2-108-521/ABT1-95-A3 hu IgG1 wt (bispecific antibody, V domains shown)
VH: EVQLLESGGGLVQPGGSLRLSCAASGFTFAEYTMMWVRQAPGKGLEWVSRIGQDGKNTYYADSVKGRFTISRDNSKNTLYLQMNSLRAEDTAVYYCAKYTGRILGHHLFDYWGQGTLVTVSS
VL: DIQMTQSPSSLSASVGDRVTITCRASKPGVRNMRWYQQKPGKAPKLLIYSVSYLEPGVPSRFSGSGSGTDFTLTISSLQPEDFATYHCLQGYRWPPTFGQGTKVEIKR
B17: ABT2-108-504/ABT1-122 hu IgG1/K wt (bispecific antibody, V domains shown)
VH: EVQLLESGGGLVQPGGSLRLSCAASGFTFADEGMMWVRQAPGKGLEWVSRIGQDGKNTYYADSVKGRFTISRDNSKNTLYLQMNSLRAEDTAVYYCAKYTGRVGVHHLFDYWGQGTLVTVSS
VL: DIQMTQSPSSLSASVGDRVTITCRASQPIWTELNWYQQKPGKAPKLLIYGSSSLQSGVPRFSGSGSGTDFTLTISSLQPEDFATYYCQQFAYFPATFGQGTKVEIKR
B18: ABT2-108-537x/ABT1-122 hu IgG1/K wt (bispecific antibody, V domains shown)
VH: EVQLLESGGGLVQPGGSLRLSCAASGFTFADEGMMWVRQAPGKGLEWVSRIGQDGKNTYYRMDVKGRFTISRDNSKNTLYLQMNSLRAEDTAVYYCAKYTGRILGHHLFDYWGQGTLVTVSS
VL: DIQMTQSPSSLSASVGDRVTITCRASQPIWTELNWYQQKPGKAPKLLIYGSSSLQSGVPRFSGSGSGTDFTLTISSLQPEDFATYYCQQFAYFPATFGQGTKVEIKR
B19: ABT2-108-521/ABT1-141-25 hu IgG1/K wt (bispecific antibody, V domains shown)
VH: EVQLLESGGGLVQPGGSLRLSCAASGFTFAEYTMMWVRQAPGKGLEWVSRIGQDGKNTYYADSVKGRFTISRDNSKNTLYLQMNSLRAEDTAVYYCAKYTGRILGHHLFDYWGQGTLVTVSS
VL: DIQMTQSPSSLSASVGDRVTITCRASQWIQKQLAWYQQKPGKAPKLLIYSSSYLQSGVPSRFSGSGSGTDFTLTISSLQPEDFATYYCQQHLRVPMTFGQGTKVEIKR

How the values were obtained:
[1] = molecular target: human IL-1β (human, UniProt P01584 117-269); assay: cell-based or functional assay
[2] = molecular target: T1, human IL-1α; assay: cell-based or functional assay

Binder | IL-1β IC50 [1] | IL-1α IC50 [2] [nM]
B1 | 0.025 nM and 0.035 nM | 1000
B2 | 10 nM | 1500
B3 | 100 nM | 7000
B4 | 0.09 nM | 450
B5 | 0.15 nM | 0.068
B6 | 3.5 nM | 5000
B7 | 0.13 nM | 1.89
B8 | 0.03 nM | 0.652
B9 | 0.4 nM | 70
B10 | 0.00555 nM | 18.5
B11 | 0.5 nM | 400
B12 | 0.005 nM | 17.5
B13 | 0.00482 nM | 10.1
B14 | 0.01 nM | 200
B15 | 0.01 nM | 200
B16 | 0.098 nM | 0.027
B17 | 15 nM | 1500
B18 | 0.007 nM and 0.02 nM | 1000
B19 | 0.1 nM | 20
